Assay results from publication PMC3530171 (Cell, 2012).

Molecular target: recombinant His-Mdm2 (UniProt P23804 1-489)
Assay: pull-down

Chain of recombinant His-Mdm2 (P23804 whole entry): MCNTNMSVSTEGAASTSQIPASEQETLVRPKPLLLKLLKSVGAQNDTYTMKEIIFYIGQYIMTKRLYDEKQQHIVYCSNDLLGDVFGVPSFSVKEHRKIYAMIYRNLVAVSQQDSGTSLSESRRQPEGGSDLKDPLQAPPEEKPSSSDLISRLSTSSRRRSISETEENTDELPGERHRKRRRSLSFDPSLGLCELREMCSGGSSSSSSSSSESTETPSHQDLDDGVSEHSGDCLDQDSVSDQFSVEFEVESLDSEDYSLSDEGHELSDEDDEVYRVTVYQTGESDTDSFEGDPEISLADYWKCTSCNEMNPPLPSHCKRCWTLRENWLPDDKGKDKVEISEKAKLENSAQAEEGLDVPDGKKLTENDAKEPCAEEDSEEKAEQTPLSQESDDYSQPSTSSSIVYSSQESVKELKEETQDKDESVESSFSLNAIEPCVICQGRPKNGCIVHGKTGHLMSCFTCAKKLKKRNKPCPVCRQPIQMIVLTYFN

B1: recombinant GST-EF1α (natural protein)
chain: GKEKTHINIVVIGHVDSGKSTTTGHLIYKCGGIDKRTIEKFEKEAAEMGKGSFKYAWVLDKLKAERERGITIDISLWKFETSKYYVTIIDAPGHRDFIKNMITGTSQADCAVLIVAAGVGEFEAGISKNGQTREHALLAYTLGVKQLIVGVNKMDSTEPPYSQKRYEEIVKEVSTYIKKIGYNPDTVAFVPISGWNGDNMLEPSANMPWFKGWKVTRKDGNASGTTLLEALDCILPPTRPTDKPLRLPLQDVYKIGGIGTVPVGRVETGVLKPGMVVTFAPVNVTTEVKSVEMHHEALSEALPGDNVGFNVKNVSVKDVRRGNVAGDSKNDPPMEAAGFTAQVIILNHPGQISAGYAPVLDCHTAHIACKFAELKEKIDRRSGKKLEDGPKFLKSGDAAIVDMVPGKPMCVESFSDYPPLGRFAVRDMRQTVAVGVIKAVDKKAAGAGKVTKSAQKAQKAK
stoichiometry N: ~1
